Among the data in PMC4638040 (2015) are response values, retold here.

Sequences and labels used below:
B1: Hsp70 C-terminal peptide GPTIEEVD (residues 634-641), biotin-SGSG at the N terminus [modified: biotin at the N terminus; biotin at the N terminus] [not stated] / Carboxy-terminus of Hsc70-interacting protein (CHIP), His-tagged, wild type … (parent complex)
chain 1: SGSGGPTIEEVD
chain 2: MKGKEEKEGGARLGAGGGSPEKSPSAQELKEQGNRLFVGRKYPEAAACYGRAITRNPLVAVYYTNRALCYLKMQQHEQALADCRRALELDGQSVKAHFFLGQCQLEMESYDEAIANLQRAYSLAKEQRLNFGDDIPSALRIAKKKRWNSIEERRIHQESELHSYLSRLIAAERERELEECQRNHEGDEDDSHVRAQQACIEAKHDKYMADMDELFSQVDEKRKKRDIPDYLCGKISFELMREPCITPSGITYDRKDIEEHLQRVGHFDPVTRSPLTQEQLIPNLAMKEVIDAFISENGWVEDY
B2: Carboxy-terminus of Hsc70-interacting protein (CHIP), untagged, wild type [human] / His-tagged UbcH5a [not stated] (parent complex)
chain 1: B1 chain 2
chain 2: not shown
B3: Carboxy-terminus of Hsc70-interacting protein (CHIP), His-tagged, wild type [human] / GST-IRF-1 (pDEST-15-codon optimized IRF-1) [not stated] (parent complex)
chain 1: B1 chain 2
chain 2: MPITRMRMRPWLEMQINSNQIPGLIWINKEEMIFQIPWKHAAKHGWDINKDACLFRSWAIHTGRYKAGEKEPDPKTWKANFRCAMNSLPDIEEVKDQSRNKGSSAVRVYRMLPPLTKNQRKERKSKSSRDAKSKAKRKSCGDSSPDTFSDGLSSSTLPDDHSSYTVPGYMQDLEVEQALTPALSPCAVSSTLPDWHIPVEVVPDSTSDLYNFQVSPMPSTSEATTDEDEEGKLPEDIMKLLEQSEWQPTNVDGKGYLLNEPGVQPTSVYGDFSCKEEPEIDSPGGDIGLSLQRVFTDLKNMDATWLDSLLTPVRLPSIQAIPCAP
B4: GST-IRF-1 (pDEST-15-codon optimized IRF-1) [not stated] / Carboxy-terminus of Hsc70-interacting protein (CHIP), His-tagged, wild type [human] (parent complex)
chain 1: B3 chain 2
chain 2: B1 chain 2

One assay covers variants of B1. Put plainly: microtitre-well binding assay (streptavidin-HRP detection); value read at the highest dose, 20 uM Hsp70 wt peptide; His-CHIP coated on wells, biotin peptide in the mobile phase; parent: 45; read off a plot.
Take chain 2 K30A: the response was about 7 RLU.

In another assay the parent is B2. The assay can be described thus: AlphaScreen; value read at the highest dose, 100 ng CHIP; untagged CHIP on protein A acceptor beads through anti-CHIP N-term pAb, His-UbcH5a on Nickel-chelate donor beads; parent: 2.3e+04; read off a plot.
Consider chain 1 K30A, for which the response was about 9000 AlphaScreen Units.

The variants in another assay derive from B3. Put plainly: microtitre-well binding assay (luminometer, anti-CHIP antibody); upper panel; value read at the highest dose, about 130 ng CHIP; GST-IRF-1 immobilized, His-CHIP in the mobile phase; parent: 18; read off a plot.
In the case of chain 1 K30A, the response is about 12 RLU.

Variants of B4 are the subject of another assay. The assay can be described thus: microtitre-well binding assay; lower panel; value read at the highest dose, about 130 ng GST-IRF-1; His-CHIP coated on wells, GST-IRF-1 in the mobile phase; parent: 120; read off a plot.
As for chain 2 K30A, the response is about 110 RLU.
